Experiments:
[1] = Pre-clinical toxicology: serum biochemistry parameters and body weight; assay type: in vivo, BALB/c mice
Method: Serum biochemistry parameters in BALB/C mice treated with KLH, OXY-KLH, anti-IL-4 mAb, or anti-IL-4 mAb plus OXY-KLH. […] The values for AST (aspartate aminotransferase) were higher among groups, perhaps as a result of muscle injury due from the injections.
(§1) Male BALB/c mice were immunized with KLH, OXY-KLH, anti-IL-4 mAb, or OXY-KLH plus anti-IL-4 mAb. The OXY-KLH and the unconjugated KLH control were administered subcutaneously on days 0, 14 and 28, while the anti-IL-4 mAb was administered intraperitoneally as in EXAMPLE 2. A week after the third immunization, mice were euthanized with CO2 to perform histopathology and clinical pathology by serum chemistry. Organs were harvested and preserved in 10% formaldehyde (methanol free, ultrapure EM grade, Polysciences, Inc., Warminster, PA), and sent to the University of Minnesota School of Veterinary Medicine for histology analysis in the laboratory of Dr. Davis Seelig. Serum was collected by centrifugation at 7500 rpm for three minutes at 4° C. and collected in lithium heparin ([…], Becton, Dickinson and Co., Franklin Lakes, NJ). Frozen samples were sent to Marshfield Labs (Marshfield, WI) for the panel tests analysis.

[2] = Histopathology across four treatment groups; assay type: in vivo, BALB/c mice
Method: FIG. 12. Co-administration of vaccines and an anti-IL-4 mAb is safe. Histopathology across four treatment groups. […] Occasionally, these regions of were centered on lymphocyte-rich lymphatic vessels. The severity of the lung pathology was similar across the four treatment groups.
as §1

6OXY-specific GC B cells = 6OXY-specific GC B cells by magnetic enrichment and flow cytometry after OXY-KLH with IL-4; assay type: in vivo, mice; conditions: IL-4 60,000 IU s.c. with OXY-KLH in alum, seven days after one immunization
Text: FIG. 4. IL-4 increased vaccine-specific GC B cells and post-vaccination GC formation. Mice were immunized subcutaneously once with the OXY-KLH vaccine adsorbed in alum adjuvant with saline or IL-4 (60,000 IU, subcutaneously). At seven days after immunization, lymph nodes and spleens were collected for analysis of antigen-specific B cell populations. Using a two-step procedure, OXY-specific B cells were first isolated by magnetic enrichment using biotinylated oxycodone-based haptens conjugated to streptavidin (SA) conjugated to the fluorescent protein phycoerythrin (PE) or a decoy reagent, and then analyzed by multi-parameter flow cytometry. (A) 6OXY-specific CD38^neg GL7^high “committed” GC B cells; (B) 6OXY-specific CD38^+ GL7^+ “uncommitted” GC B cells; (C) Ratio of 6OXY-specific (CD38^neg) to (CD38^+) GL7^+ B cells, a measure of GC activation and B cell commitment to GC-dependent pathways; (D) 6OXY-specific IgM^high naive and memory B cells. Data shown are from two independent experiments and expressed as mean±SEM (n=10). […] Statistical symbols: *p<0.05, and […].
Mice were immunized subcutaneously once with OXY-KLH in alum adjuvant in combination with IL-4 (60,000 IU, Bio-Techne Corp., Minneapolis, MN). […]

[3] = serum, BALB/c mice, a week after third immunization, mean ± SEM

Molecule: keyhole limpet hemocyanin [KLH]
- Body weight ([1]; BALB/c mice, a week after third immunization, mean ± SEM): 26.5 ± 0.39 g
- Protein, bilirubin, ALT, urea nitrogen, and total cholesterol versus normal range ([1]; serum, BALB/C mice): in the normal range
- Values for AST (aspartate aminotransferase) ([1]; serum, BALB/C mice, perhaps muscle injury from the injections): higher
- ALT [1, 3]: 71.6 ± 3.2^ U/L
- AST [1, 3]: 626 ± 24.7 U/L
- Cholesterol [1, 3]: 161 ± 10.4 mg/dL
- Total bilirubin [1, 3]: 0.2 ± 0.10 mg/dL
- Total protein [1, 3]: 5.7 ± 0.32 g/dL
- Urea nitrogen [1, 3]: 20 ± 1.5 mg/dL
- Histopathology, kidney, heart, thymus, stomach, small intestine, large intestine, and pancreas ([2]; mouse, in vivo): No significant pathology
- Histopathology, spleen ([2]; mouse, in vivo): No significant pathology
- Histopathology, liver (centrolobular hepatocytes) ([2]; similar in severity across four treatment groups): occasionally moderate vacuolar change
- Histopathology, lungs (interstitium) ([2]; with concurrent congestion, severity similar across the four treatment groups): mild to occasionally moderately increased numbers of inflammatory cells

B1: IL-4: recombinant mouse IL-4 from Bio-Techne Corp., co-administered with OXY-KLH (protein, UniProt P07750 21-140, looked up)
Interleukin-4: HIHGCDKNHLREIIGILNEVTGEGTPCTEMDVPNVLTATKNTTESELVCRASKVLRIFYLKHGKTPCLKKNSSVLMELQRLFRAFRCLDSSISCTMNESKSTSLKDFLESLKSIMQMDYS
- post-vaccination GC formation (fraction of subjects) (6OXY-specific GC B cells): increased
- vaccine-specific GC B cells (6OXY-specific GC B cells): increased
